The values that follow come from patent US6013515, “Cofactors for HIV-1 protein Tat and methods of use therefor” (The Rockefeller University, dated 2000).

The target in one assay is HIV-1 Tat (HIV-1, UniProt P04608). As to the kind of experiment: cell-based or functional assay.
Assay [1] deals with GST (glutathione S-transferase) control column (Schistosoma japonicum (Blood fluke), UniProt P08515 = GST). As to the kind of experiment: affinity chromatography of HeLa whole cell extract, SDS-PAGE, silver stain.

B1: TIP1 expressed in HeLa cells from pcDNA3.1TIP1 (other)
chain: MAETEALSKLREDFRMQNKSVFILGASGETGRVLLKEILEQGLFSKVTLIGRRKLTFDEEAYKNVNQEVVDFEKLDDYASAFQGHDVGFCCLGTTRGKAGAEGFVRVDRDYVLKSAELAKAGGCKHFNLLSSKGADKSSNFLYLQVKGEVEAKVEELKFDRYSVFRPGVLLCDRQESRPGERLVRKFFGSLPDSWASGHSVPVVTVVRAMLNNVVRPRDKQMELLENKAIHDLGKAHGSLKP
In the case of B1, in the assay with HIV-1 Tat, the “CAT expression from HIV-1 LTR-CAT reporter in cotransfected HeLa cells” value stood at 8.9 fold.

B2: Tat-interacting protein 30 (TIP30), endogenous 30 kDa protein from HeLa extract (other)
chain: AETEALSKLREDFRMQNKSVFILGASGETGRVLLKEILEQGLFSKVTLIGRRKLTFDEEAYKNVNQEVVDFEKLDDYASAFQGHDVGFCCLGTTRGKAGAEGFVRVDRDYVLKSAELAKAGGCKHFNLLSSKGADKSSNFLYLQVKGEVEAKVEELKFDRYSVFRPGVLLCDRQESRPGERLVRKFFGSLPDSWASGHSVPVVTVVRAMLNNVVRPRDKQMELLENKAIHDLGKAHGSLKP
Take B2: the binding result in assay [1] is on record as “no binding”.
